This passage reports Kd, koff and kon results from publication PMC7660097, “Structural Insights into the Interactions of Candidal Enolase with Human Vitronectin, Fibronectin and Plasminogen” (International Journal of Molecular Sciences, 2020).

The labels stand for the following.
B3: human vitronectin (natural protein)
chain: DQESCKGRCTEGFNVDKKCQCDELCSYYQSCCTDYTAECKPQVTRGDVFTMPEDEYTVYDDGEEKNNATVHEQVGGPSLTSDLQAQSKGNPEQTPVLKPEEEAPAPEVGASKPEGIDSRPETLHPGRPQPPAEEELCSGKPFDAFTDLKNGSLFAFRGQYCYELDEKAVRPGYPKLIRDVWGIEGPIDAAFTRINCQGKTYLFKGSQYWRFEDGVLDPDYPRNISDGFDGIPDNVDAALALPAHSYSGRERVYFFKGKQYWEYQFQHQPSQEECEGSSLSAVFEHFAMMQRDSWEDIFELLFWGRTSAGTRQPQFISRDWHGVPGQVDAAMAGRIYISGMAPRPSLAKKQRFRHRNRKGYRSQRGHSRGRNQNSRRPSRATWLSLFSSEESNLGANNYDDYRMDWLVPATCEPIQSVFFFSGDKYYRVNLRTRRVDTVDPPYPRSIAQYWLGCPAPGHL
modifications: biotin (NHS-biotin) in the cell-binding assays of Figure 1; sulfo-SDAD on amino groups in the cross-linking
notes: Vitronectin, human; also called VTR; VTR-Bt; source: bought: R&D Systems

The target of the assay “human vitronectin” is B3. Briefly: SPR; BIACORE 3000; enolase amine-coupled to a CM5 chip (about 300 RU); human protein as analyte (40-750 nM or 75-750 nM), 30 µL/min, 25 °C, 10 mM HEPES, 150 mM NaCl, 0.005% P20, pH 7.4; 1:1 Langmuir global fit with baseline drift and local Rmax; regeneration 1 M NaCl. To be noted: both partners purified. In general terms: In SPR one partner is held on a chip, and binding of the other changes the refractive index at the surface.

In assay [1] the target is T1, C. albicans cell surface-exposed enolase (C. albicans, UniProt P30575 1-440, biotin (biotin-labeled enolase) in the microplate ligand-binding assay).
T1 construct: Enolase of Candida albicans (strain ATCC 10231), form exposed at the cell surface; identified by LC-MS/MS, non-glycosylated, 47 kDa; Same protein as m2, isolated from another compartment; also called C. albicans enolase, cell wall; cell wall-associated enolase
The description is as above. To be noted: both partners purified.

B1: C. albicans cytosolic enolase (enzyme, UniProt P30575 1-440, looked up)
chain: MSYATKIHARYVYDSRGNPTVEVDFTTDKGLFRSIVPSGASTGVHEALELRDGDKSKWLGKGVLKAVANVNDIIAPALIKAKIDVVDQAKIDEFLLSLDGTPNKSKLGANAILGVSLAAANAAAAAQGIPLYKHIANISNAKKGKFVLPVPFQNVLNGGSHAGGALAFQEFMIAPTGVSTFSEALRIGSEVYHNLKSLTKKKYGQSAGNVGDEGGVAPDIKTPKEALDLIMDAIDKAGYKGKVGIAMDVASSEFYKDGKYDLDFKNPESDPSKWLSGPQLADLYEQLISEYPIVSIEDPFAEDDWDAWVHFFERVGDKIQIVGDDLTVTNPTRIKTAIEKKAANALLLKVNQIGTLTESIQAANDSYAAGWGVMVSHRSGETEDTFIADLSVGLRSGQIKTGAPARSERLAKLNQILRIEEELGSEAIYAGKDFQKASQL
modifications: biotin (biotin-labeled enolase) in the microplate assays
notes: Enolase of Candida albicans (strain ATCC 10231), cytosolic form; identified by LC-MS/MS; also called C. albicans enolase, cytosol; source: purified from C. albicans ATCC 10231 cytosol (ammonium sulphate fractionation, MonoQ, MonoS)
The Kd is a measure of binding affinity in units of concentration. The term koff denotes a measure of how fast the partners let go of each other. A lower koff goes with slow dissociation. The kon is a measure of how fast the partners come together. The low end stands for slow association, the high end for fast association. In the assay with human vitronectin, B1 had a Kd of 55.3 nM, an off-rate constant (koff) of 0.00493 s⁻¹ and a kon of 89100 M⁻¹ s⁻¹.

B2: C. tropicalis cytosolic enolase (enzyme, UniProt C5MD83 1-440, looked up)
chain: MSYATKIHARTVYDSRGNPTVEVELTTDNGMFRSIVPSGASTGIHEALELRDGDKSKWLGKGVLKAVSNVNDIIAPALIDAKIDVNDQSKIDEFMIKLDGTPNKSKLGANAILGVSLAAANAAAANQGIPLYQHIANLSKSKKDKYVLPVPFQNVLNGGAHAGGDLAFQEFMIVPTGAESFSEAMRIDSEVYHTLKSLAKKKYGQSAGNVGDEGGVAPDLRTPEEALDLIVESIEQAGHTGKVKIAMDPASSEFFKDGKYDLDFKNPNPDPAKRLSGKELAELYERLINKYPIVLLEDPFAEDDWDAWVHFFKIVGDKVQIVADDLTVTNPIRIKKAIEKKCANALLVKVNQIGTLSESIVAANDAFGAGWGVMVSHRSGETEDTFIADLVVGLRAGQIKTGAPARSERLAKLNQILRIEESLGDDAIYAGKNFAVAHQL
modifications: biotin (biotin-labeled enolase) in the microplate assays
notes: Enolase of Candida tropicalis (strain T1, ATCC MYA-3404), cytosolic form; identified by LC-MS/MS; also called C. tropicalis enolase, cytosol; source: purified from C. tropicalis T1 (ATCC MYA-3404) cytosol (ammonium sulphate fractionation, MonoQ, MonoS)
In the assay with human vitronectin, B2 gave a dissociation constant (Kd) of 683 nM, a koff of 0.00915 s⁻¹ and an on-rate (kon) of 13400 M⁻¹ s⁻¹.
In the case of B3, in assay [1], the dissociation constant Kd is 31.1 nM, the koff was found to be 0.00417 s⁻¹ and the kon worked out at 134000 M⁻¹ s⁻¹.
